Results reported in patent US6815532B2, “ATR-2 cell cycle checkpoint” (ICOS Corporation, priority 1999, dated 2004).

Tests used:
Assay type in all cases: biochemical
Atr-2 protein = target: T1, Atr-2 protein (Homo sapiens, UniProt Q96Q15); experiment: ATR-2 kinase assay, autophosphorylation (immunoprecipitated FLAG-tagged Atr-2 fragment from 293T cells, 32P-ATP, P81 paper); details: immunoprecipitate from transfected 293T cells, 30° C. for 30 min
T1 construct: a region containing the putative kinase domain was subcloned into the mammalian expression vector, pCIneo; made in house; host or cells: 293T cells (transient transfection, anti-FLAG M2 immunoprecipitate on protein A beads)
Method: (§1) After 48 hr, cells were harvested and lysed in 0.5 ml lysis buffer (Example 6), and the lysates were precleared by incubation with 50 μl protein A beads for 2 hr at 4° C. The supernatant was immunoprecipitated with 6 μg anti-M2 antibody for one hr at 4° C. and the sample was divided into five aliquots. One hundred μl of the mixture was combined with 10 μl protein A beads for three hr at 4° C., after which the beads were washed twice with lysis buffer and three times in kinase buffer containing 10 mM HEPES, pH 7.4, 10 mM MnCl2, 50 mM NaCl, 10 mM MgCl2, and 5 mM DTT.
(§2) In the kinase assay, 10 μl protein A beads was mixed with 10 μl PKA and PKC inhibitors from a p79^S6 kinase assay kit (Upstate Biotechnology Inc., Lake Placid, N.Y.) and 10 μl ATP mixture: containing kinase buffer (above) with 10 mM ATP, 3 μCi ^32P-ATP, plus or minus 6 μl myelin basic protein as substrate. Reactions were incubated at 30° C. for 30 min and 20 μl of the reaction mixture was spotted onto P81 paper. The P81 paper was washed three times in 150 mM phosphoric acid and dried, and Cerenkov radiation measured.

myelin basic protein = experiment: ATR-2 kinase assay with exogenous substrate myelin basic protein; details: immunoprecipitate from transfected 293T cells, 30° C. for 30 min, 32P-ATP
Method: as §1, §2

histone H1 = experiment: ATR-2 kinase assay with substrate histone H1
PHAS-1 = experiment: ATR-2 kinase assay with substrate PHAS-1

B1: 73 kDa Atr-2 truncated protein: FLAG-tagged truncated human Atr-2 containing the putative kinase domain, expressed from pCIneoFLAGATR2 in 293T cells (protein)
chain: MLVAELRRVTVLWDELWLGVLLQQHMYVLRRIQQLEDEVKRVQNNNTLRKEEKIAIMREKHTALMKPIVFALEHVRSITAAPAETPHEKWFQDNYGDAIENALEKLKTPLNPAKPGSSWIPFKEIMLSLQQRAQKRASYILRLEEISPWLAAMTNTEIALPGEVSARDTVTIHSVGGTITILPTKTKPKKLLFLGSDGKSYPYLFKGLEDLHLDERIMQFLSIVNTMFATINRQETPRFHARHYSVTPLGTRSGLIQWVDGATPLFGLYKRWQQREAALQAQKAQDSYQTPQNPGIVPRPSELYYSKIGPALKTVGLSLDVSRRDWPLHVMKAVLEELMEATPPNLLAKELWSSCTTPDEWWRVTQSYARSTAVMSMVGYIIGLGDRHLDNVLIDMTTGEVVHIDYNVCFEKGKSLRVPEKVPFRMTQNIETALGVTGVEGVFRLSCEQVLHIMRRGRETLLTLLEAFVYDPLVDWTAGGEAGFAGAVYGGGGQQAESKQSKREMEREITRSLFSSRVAEIKVNWFKNRDEMLVVLPKLDGSLDEYLSLQEQLTDVEKLQGKLLEEIEFLEGAEGVDHPSHTLQHRYSEHTQLQTQQRAVQEAIQVKLNEFEQWITHYQAAFNNLEATQLASLLQEISTQMDLGPPSYVPA
modifications: left off: small tags and cut ends
notes: FLAG-tagged truncated human Atr-2 containing the putative kinase domain, expressed from pCIneoFLAGATR2 in 293T cells
- kinase activity: phosphorylation of the Atr-2 protein itself (Atr-2 protein): able to phosphorylate
- kinase activity: phosphorylation of exogenous myelin basic protein substrate (myelin basic protein): able to phosphorylate
- kinase activity: phosphorylation of histone H1 (histone H1): did not phosphorylate
- kinase activity: phosphorylation of PHAS-1 (PHAS-1): did not phosphorylate
